The data set “SEC” concerns the molecule itself. Description: SEC. On the technique in general: In gel filtration, larger molecules generally elute earlier.
Data set [1] deals with the molecule itself. Description: cryo-EM 2D class averages.
Data set [2] deals with the molecule itself. The data set is described as follows: assembly and coassembly seen by negative stain electron microscopy.
Data set [3] deals with DRP1 E116R mutant, full length (human, UniProt O00429-3 1-710, E116R). The description is as above.

B1: DRP1 G362D, disease-associated mutant, full length (enzyme)
chain: MEALIPVINKLQDVFNTVGADIIQLPQIVVVGTQSSGKSSVLESLVGRDLLPRGTGIVTRRPLILQLVHVSQEDKRKTTGEENGVEAEEWGKFLHTKNKLYTDFDEIRQEIENETERISGNNKGVSPEPIHLKIFSPNVVNLTLVDLPGMTKVPVGDQPKDIELQIRELILRFISNPNSIILAVTAANTDMATSEALKISREVDPDGRRTLAVITKLDLMDAGTDAMDVLMGRVIPVKLGIIGVVNRSQLDINNKKSVTDSIRDEYAFLQKKYPSLANRNGTKYLARTLNRLLMHHIRDCLPELKTRINVLAAQYQSLLNSYGEPVDDKSATLLQLITKFATEYCNTIEGTAKYIETSELCDGARICYIFHETFGRTLESVDPLGGLNTIDILTAIRNATGPRPALFVPEVSFELLVKRQIKRLEEPSLRCVELVHEEMQRIIQHCSNYSTQELLRFPKLHDAIVEVVTCLLRKRLPVTNEMVHNLVAIELAYINTKHPDFADACGLMNNNIEEQRRNRLARELPSAVSRDKLIQDSRRETKNVASGGGGVGDGVQEPTTGNWRGMLKTSKAEELLAEEKSKPIPIMPASPQKGHAVNLLDVPVPVARKLSAREQRDCEVIERLIKSYFLIVRKNIQDSVPKAVMHFLVNHVKDTLQSELVGQLYKSSLLDDLLTESEDMAQRRKEAADMLKALQGASQIIAEIRETHLW
The term stoichiometry N denotes the number of molecules, sites or subunits per partner or assembly. For B1, the “stoichiometry N” value was 2 in “SEC” and 24 chains (12 dimers) in data set [1].

B2: DRP1 S611D phosphomimetic mutant, full length (enzyme)
chain: MEALIPVINKLQDVFNTVGADIIQLPQIVVVGTQSSGKSSVLESLVGRDLLPRGTGIVTRRPLILQLVHVSQEDKRKTTGEENGVEAEEWGKFLHTKNKLYTDFDEIRQEIENETERISGNNKGVSPEPIHLKIFSPNVVNLTLVDLPGMTKVPVGDQPKDIELQIRELILRFISNPNSIILAVTAANTDMATSEALKISREVDPDGRRTLAVITKLDLMDAGTDAMDVLMGRVIPVKLGIIGVVNRSQLDINNKKSVTDSIRDEYAFLQKKYPSLANRNGTKYLARTLNRLLMHHIRDCLPELKTRINVLAAQYQSLLNSYGEPVDDKSATLLQLITKFATEYCNTIEGTAKYIETSELCGGARICYIFHETFGRTLESVDPLGGLNTIDILTAIRNATGPRPALFVPEVSFELLVKRQIKRLEEPSLRCVELVHEEMQRIIQHCSNYSTQELLRFPKLHDAIVEVVTCLLRKRLPVTNEMVHNLVAIELAYINTKHPDFADACGLMNNNIEEQRRNRLARELPSAVSRDKLIQDSRRETKNVASGGGGVGDGVQEPTTGNWRGMLKTSKAEELLAEEKSKPIPIMPASPQKGHAVNLLDVPVPVARKLDAREQRDCEVIERLIKSYFLIVRKNIQDSVPKAVMHFLVNHVKDTLQSELVGQLYKSSLLDDLLTESEDMAQRRKEAADMLKALQGASQIIAEIRETHLW
For the molecule B2, the binding result in data set [2] was “binds”.

B3: MID49_(126-454), soluble truncation of Mitochondrial Dynamics 49 without the N-terminal transmembrane anchor (domain or fragment)
chain: TLQERLLAFERDRVTIPAAQVALAKQLAGDIALELQAYFRSKFPELPFGAFVPGGPLYDGLQAGAADHVRLLVPLVLEPGLWSLVPGVDTVARDPRCWAVRRTQLEFCPRGSSPWDRFLVGGYLSSRVLLELLRKALAASVNWPAIGSLLGCLIRPSMASEELLLEVQHERLELTVAVLVAVPGVDADDRLLLAWPLEGLAGNLWLQDLYPVEAARLRALDDHDAGTRRRLLLLLCAVCRGCSALGQLGRGHLTQVVLRLGEDNVDWTEEALGERFLQALELLIGSLEQASLPCHFNPSVNLFSSLREEEIDDIGYALYSGLQEPEGLL
For B3, the binding result in data set [3] is given as “binds”.

The record behind these values is article PMC6120343 (Nature, 2018).
